Measured values from patent US20240269276A1 (HARBOUR BIOMED SHANGHAI, published 2024).

Columns and labels:
[1] = biological target: T1, human CD73 on CHO-K1 cells overexpressing human CD73 (human, UniProt P21589 27-549); assay: flow cytometry on CHO-K1 cells overexpressing human CD73 (CHO-K1-hCD73) [continued) D]
T1 construct: whole, on cells; also called CHO-K1-hCD73
T1 sequence (looked up): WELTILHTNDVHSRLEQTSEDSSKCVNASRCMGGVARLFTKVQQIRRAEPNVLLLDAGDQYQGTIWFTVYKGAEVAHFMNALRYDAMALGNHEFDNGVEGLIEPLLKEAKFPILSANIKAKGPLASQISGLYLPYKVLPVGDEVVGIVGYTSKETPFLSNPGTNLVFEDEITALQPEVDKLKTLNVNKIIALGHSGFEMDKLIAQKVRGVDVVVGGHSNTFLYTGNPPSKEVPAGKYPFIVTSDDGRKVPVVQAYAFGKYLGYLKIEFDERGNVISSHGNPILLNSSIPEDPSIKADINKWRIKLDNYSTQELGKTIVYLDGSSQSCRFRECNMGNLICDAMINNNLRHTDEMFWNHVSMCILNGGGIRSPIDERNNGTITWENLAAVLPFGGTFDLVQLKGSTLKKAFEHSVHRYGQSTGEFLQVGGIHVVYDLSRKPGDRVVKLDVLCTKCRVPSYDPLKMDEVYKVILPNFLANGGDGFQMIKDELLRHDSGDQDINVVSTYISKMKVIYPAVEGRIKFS
Method: (§1) In order to investigate the binding activity of the CD73×PD-L1 bispecific antibody to human CD73 and PD-L1, the binding experiment at the cellular level was performed using CHO-K1 cell strains overexpressing human CD73 or PD-L1 (CHO-K1-hCD73 or CHO-K1-hPD-L1). Briefly, the CHO-K1-hCD73 and CHO-K1-hPD-L1 cells were digested and resuspended in an F-12K complete medium, and the cell density was adjusted to 1×10⁶ cells/mL. The cells were seeded in a 96-well V-bottom plate (Corning, #3894) at 100 μL/well, followed by the addition at 100 μL/well and centrifugation at 500 g at 4° C. for 5 min, and then the supernatant was discarded. Antibodies were 3-fold diluted to a maximum final concentration of 50 nM, and a total of 8 concentrations were set. 100 μL of the diluted antibodies was added to the cells, and the cells were incubated away from light at 4° C for 1 h. Thereafter, the cells in each well were rinsed twice with 100 μL of pre-cooled PBS, and centrifuged at 500 g at 4° C. for 5 min, and then the supernatant was discarded. Then 100 μL of a fluorescent secondary antibody (goat anti-human IgG (H+L) secondary antibody, Alexa Fluor® 488 conjugate, Invitrogen, #A11013, diluted at the ratio of 1:1000) was added to each well. […] Finally, the cells in each well were resuspended in 200 μL of pre-cooled PBS, and the fluorescence signal values were read using a BD FACS CANTOII.

[2] = biological target: T1, human CD73 on CHO-K1 cells …; assay: flow cytometry on CHO-K1 cells overexpressing human CD73 (CHO-K1-hCD73) [continued) C]
Method: as §1

[3] = biological target: T1, human CD73 on CHO-K1 cells …; assay: flow cytometry on CHO-K1 cells overexpressing human CD73 (CHO-K1-hCD73)
Method: In order to investigate the binding activity of the CD73×PD-L1 bispecific antibody to human CD73 and PD-L1, the binding experiment at the cellular level was performed using CHO-K1 cell strains overexpressing human CD73 or PD-L1 (CHO-K1-hCD73 or CHO-K1-hPD-L1). Briefly, the CHO-K1-hCD73 and CHO-K1-hPD-L1 cells were digested and resuspended in an F-12K complete medium, and the cell density was adjusted to 1×10⁶ cells/mL. The cells were seeded in a 96-well V-bottom plate (Corning, #3894) at 100 μL/well, followed by the addition at 100 μL/well and centrifugation at 500 g at 4° C. for 5 min, and then the supernatant was discarded. Antibodies were 3-fold diluted to a maximum final concentration of 50 nM, and a total of 8 concentrations were set. 100 μL of the diluted antibodies was added to the cells, and the cells were incubated away from light at 4° C for 1 h. Thereafter, the cells in each well were rinsed twice with 100 μL of pre-cooled PBS, and centrifuged at 500 g at 4° C. for 5 min, and then the supernatant was discarded. Then 100 μL of a fluorescent secondary antibody (goat anti-human IgG (H+L) secondary antibody, Alexa Fluor® 488 conjugate, Invitrogen, #A11013, diluted at the ratio of 1:1000) was added to each well. The plate was incubated away from light at 4° C. for 30 min. The cells in each well were then rinsed twice with 200 μL of pre-cooled PBS and centrifuged at 500 g at 4° C. for 5 min, and then the supernatant was discarded. Finally, the cells in each well were resuspended in 200 μL of pre-cooled PBS, and the fluorescence signal values were read using a BD FACS CANTOII.

EC50 [1]: 0.737 nM
EC50 [2]: 1.73 nM
EC50 [3]: 0.352 nM
B1: PR000846 (antibody, human IgG1, kappa, L234A L235A, V domains shown)
VH: QVQLVESGGGVAQPGRSLSLSCAASGFTFSDYGMHWVRQAPGKGLEWVALIWYDASFEYYADSVKGRFSISRDNSKNTLYLQMNSLRAEDTAVYYCVRDAQWGSRLDYWGQGTLVTVSS
VL: KIVMTQSPATLSLSPGERATLSCRASQSVSRYLAWYQQKPGQAPRLLIYDASNRATGIPARFSGSGSGTDFTLTISSLEPEDFAVYYCQQRSNWIFTFGPGTKVDIKR
notes: Anti-CD73 IgG (human IgG1 constant region, human Ig kappa), PTM removed; also called anti-CD73 antibody PR000846; parent monoclonal antibody PR000846
